From paper PMC11535546

Target: VASP (UniProt P50552)
Assay: co-immunoprecipitation, immunoblot
Conditions: reference: wild-type Zyxin; sites S142,S143

Zyxin (from UniProt Q15942) Zyxin S142A/S143A
binding against the reference: lost
